Measured values as given in patent publication US20200397827A1, “CHONDROCYTE PROLIFERATION PROMOTER, CHONDROCYTE PROLIFERATION PROMOTION METHOD, SCREENING METHOD FOR CHONDROCYTE PROLIFERATION PROMOTERS” (Tokyo University of Science Foundation, priority 2018, published 2020).

Key:
Type in all cases: cell-based, mouse
[1] = tested on: ATDC5 cells; assay: Cell proliferation of ATDC5 cells in the presence or absence of AdipoR1 blocker
Method: ATDC5 cells were seeded into a 12-well plate at a cell density of 1×10^4/well and cultured in the presence or absence of 10 μg/ml AdipoR1 blocker (GeneTex) and in the presence or absence of 100 ng/ml recombinant human CTRP6 (Aviscera Bioscience) for 2 days (all n=4). As a medium, a HAM's F-12 medium containing 5% FBS and 1% penicillin/streptomycin was used.
Furthermore, 100 ng/ml adiponectin (BioVendor), 100 ng/ml AdipoRon (AdipoGen), or 50 ng/ml recombinant human CTRP3 (Aviscera Bioscience) was used instead of 100 ng/ml recombinant human CTRP6 to culture in the same manner as described above (all n=4). Meanwhile, when the AdipoRon was used, a culture period was 1 day.
After culturing, the number of cells was counted with a hemocytometer.

[2] = tested on: ATDC5 cells; assay: Effect of MAPK inhibitor on cell proliferation of chondrocyte; details: FIG. 3C
Method: ATDC5 cells were seeded into a 48-well plate at a cell density of 2×10^4/well and cultured in the presence or absence of 50 ng/ml recombinant human CTRP6 (Aviscera Bioscience) for 2 days. A HAM's F-12 medium containing 5% FBS and 1% penicillin/streptomycin was used as a medium, and a carrier (DMSO), 1 μM ERK1/2 inhibitor (U0126, Sigma), 1 μM JNK inhibitor (SP600125, Sigma), or 1 μM p38 inhibitor (SB239063, Sigma) was further added thereto (all n=4).
After 2 day-culture, the number of cells was counted with a hemocytometer.

[3] = tested on: ATDC5 cells; assay: Cell proliferation of ATDC5 cells with adiponectin receptor siRNA introduced, recombinant human CTRP3; details: 50 ng/ml, 2 days, FIG. 6A
Method: AdipoR1 siRNA, AdipoR2 siRNA, control siRNA-1, AdipoR3 siRNA, AdipoR4 siRNA, or control siRNA-2 was introduced (transfected) into ATDC5 cells in the same manner as in Test Example 4 (1).
Forty-eight hours after the introduction of the siRNAs, the ATDC5 cells were seeded into a 48-well plate at a cell density of 2×10^4/well and cultured in the presence or absence of 50 ng/ml recombinant human CTRP3 (Aviscera Bioscience) for 2 days (all n=4). After that, the number of cells was counted with a hemocytometer.

[4] = tested on: primary chondrocytes of Clqtnf6−/− mice; assay: Chondrogenesis of primary chondrocytes (Alcian blue staining); details: 0, 2.5, 5, 10 μg/ml, 7 days, FIG. 2B
Method: Costal cartilage tissues from neonates (5 to 6 day-old) of the Clqtnf6^−/− mice and the wild-type mice were enzymatically digested with DMEM containing 0.5 mg/ml collagenase D to thereby obtain primary chondrocytes. Then, 2×10^5 cells were suspended into 10 μL of DMEM containing 10% FCS, seeded into a 24-well plate, and cultured at 37° C. for 2 hours (both n=3). Then, DMEM containing 10% FCS was added thereto at a volume of 500 μL per well and culturing was continued for 7 days. Then, the cells were fixed with 10% neutral buffered formalin, washed with 0.1 N HCl, and then stained with a 1% Alcian blue 8GX solution (Sigma-Aldrich) in order to confirm chondrogenesis.
In the same manner as described above, primary chondrocytes were obtained from the Clqtnf6^−/− mice, and then 2×10^5 cells were suspended into 10 μL of DMEM containing 10% FCS, seeded into a 24-well plate, and cultured at 37° C. for 2 hours. Then, DMEMs containing 10% FCS and various concentrations (0, 2.5, 5, 10 μg/ml; all n=3) of recombinant human CTRP6 (Aviscera Bioscience) were added thereto at a volume of 500 μL per well and culturing was continued for 7 days. Then, the cells were fixed with 10% neutral buffered formalin, washed with 0.1 N HCl, and then stained with a 1% Alcian blue 8GX solution (Sigma-Aldrich) in order to confirm chondrogenesis.

[5] = tested on: ATDC5 cells; assay: Cell proliferation of ATDC5 cells with adiponectin receptor siRNA introduced, recombinant human CTRP6; details: 100 ng/ml, 1 day
Method: ATDC5 cells were seeded into a 24-well plate at a cell density of […] and cultured in a HAM's F-12 medium containing 2.5% FBS for 24 hours. After culturing, 30 pmol of AdipoR1 siRNA, 30 pmol of AdipoR2 siRNA, 30 pmol of control siRNA-1, 6 pmol of AdipoR3 siRNA, 6 pmol of AdipoR4 siRNA, or 6 pmol of control siRNA-2 was introduced (transfected) thereinto and culturing was continued for 48 hours. Lipofectamine RNAiMAX (Invitrogen) was used to introduce the siRNAs.
Meanwhile, the AdipoR3 siRNA, the AdipoR4 siRNA, and the control siRNA-2 were purchased from IDT Teck (TriTECTa RNAi Kit). Base sequences of the AdipoR1 siRNA, the AdipoR2 siRNA, and the control siRNA-1 were as follows:
Forty-eight hours after the introduction of the siRNAs, the ATDC5 cells were seeded into a 48-well plate at a cell density of 2×10^4/well and cultured in the presence or absence of 100 ng/ml recombinant human CTRP6 (Aviscera Bioscience) for 1 day (all n=4). After that, the number of cells was counted with a hemocytometer.

[6] = tested on: ERK1/2; assay: Phosphorylation of MAPK, western blotting; details: ATDC5; 10 ng/ml; 1, 5, 15 or 30 min; FIG. 3B
Method: ATDC5 cells were seeded into a 60 mm Petri dish at a cell density of 1×10^6/well and cultured in a serum-free HAM's F-12 medium for 4 hours. Then, the resultant was washed with PBS and then cultured in a serum-free HAM's F-12 medium containing 10 ng/ml recombinant human CTRP6 (Aviscera Bioscience) for 1 min, 5 min, 15 min, or 30 min. Then, the cells were washed with a phosphatase-inhibiting buffer supplemented with PhosSTOP (Sigma) and then lysed with a lysis buffer (0.1% TritonX-100, 100 mM NaCl, 50 mM Tris-HCl (pH 7.5)).
Then, the resultant cell lysate was subjected to electrophoresis on a 12.5% SDS-PAGE gel and proteins were transferred onto a PVDF membrane. The membrane onto which the proteins had been transferred was blocked by shaking in 5% BSA/TBS at room temperature for 1 hour. After blocking, the membrane was shaken in the presence of a primary antibody (rabbit monoclonal antibody) at room temperature for 1 hour to thereby undergo a primary antibody reaction. […] Intensity of each band was quantified with ImageJ software (NIH).

[7] = tested on: ATDC5 cells; assay: Cell proliferation of chondrocyte line, cell count with hemocytometer; details: 0, 100, 500 ng/ml, 4 and 7 day-culture, FIG. 3A
Method: In Test Example 3, a function of CTRP6 was analyzed using a mouse chondrocyte line ATDC5.
ATDC5 cells were seeded into a 12-well plate at a cell density of 5×10^4/well and cultured in the presence of various concentrations (0, 100, 500 ng/ml; all n=3) of recombinant human CTRP6 (Aviscera Bioscience). As a medium, a HAM's F-12 medium containing 5% FBS and 1% penicillin/streptomycin was used.
After 4 and 7 day-culture, the number of cells was counted with a hemocytometer.

[8] = tested on: ERK1/2; assay: ERK phosphorylation in ATDC5 cells with adiponectin receptor siRNA introduced, western blotting; details: 10 ng/ml, 15 min
Method: ATDC5 cells into which the siRNA had been introduced were seeded into a 60 mm Petri dish at a cell density of 1×10^6/well and cultured in a serum-free HAM's F-12 medium for 4 hours. Then, the cells were washed with PBS and then cultured in a serum-free HAM's F-12 medium containing 10 ng/ml recombinant human CTRP6 (Aviscera Bioscience) for 15 min. Then, the cells were washed with a phosphatase-inhibiting buffer supplemented with PhosSTOP (Sigma) and then lysed with a lysis buffer (0.1% TritonX-100, 100 mM NaCl, 50 mM Tris-HCl (pH 7.5)). Western blotting analysis was performed in the same manner as in Test Example 3 (2).

[9] = 100 ng/ml, 2 days, FIGS. 5A, 5B

## O=C(COc1ccc(C(=O)c2ccccc2)cc1)NC1CCN(Cc2ccccc2)CC1 [AdipoRon, reference compound]
[1]; 100 ng/ml, culture period 1 day, FIG. 5C
  number of cells (cell proliferation): facilitated cell proliferation

## N#CC(=C(/N)Sc1ccccc1N)/C(C#N)=C(/N)Sc1ccccc1N [ERK1/2 inhibitor, U0126, reference compound]
[2]; 1 μM inhibitor, presence or absence of 50 ng/ml recombinant human CTRP6, 2 days
  number of cells (cell proliferation) with MAPK inhibitor added: inhibited cell proliferation

B1: recombinant human CTRP3: recombinant human CTRP3 (Aviscera Bioscience), C1q/TNF-related protein family; amino acid sequence SEQ ID NO: 2 (protein, listed as Homo sapiens)
chain: MLWRQLIYWQLLALFFLPFCLCQDEYMESPQTGGLPPDCSKCCHGDYSFRGYQGPPGPPGPPGIPGNHGNNGNNGATGHEGAKGEKGDKGDLGPRGERGQHGPKGEKGYPGIPPELQIAFMASLATHFSNQNSGIIFSSVETNIGNFFDVMTGRFGAPVSGVYFFTFSMMKHEDVEEVYVYLMHNGNTVFSMYSYEMKGKSDTSSNHAVLKLAKGDEVWLRMGNGALHGDHQRFSTFAGFLLFETK
[3]
  number of cells (cell proliferation), AdipoR2 siRNA introduced: facilitation of cell proliferation was not confirmed

B2: adiponectin: adiponectin (BioVendor), protein of the CTRP family; human amino acid sequence SEQ ID NO: 1 (protein, listed as Homo sapiens)
chain: MLLLGAVLLLLALPGHDQETTTQGPGVLLPLPKGACTGWMAGIPGHPGHNGAPGRDGRDGTPGEKGEKGDPGLIGPKGDIGETGVPGAEGPRGFPGIQGRKGEPGEGAYVYRSAFSVGLETYVTIPNMPIRFTKIFYNQQNHYDGSTGKFHCNIPGLYYFAYHITVYMKDVKVSLFKKDKAMLFTYDQYQENNVDQASGSVLLHLEVGDQVWLQVYGEGERNGLYADNDNDSTFTGFLLYHDTN
[1]; [9]
  number of cells (cell proliferation): facilitated cell proliferation

B3: recombinant human CTRP6: recombinant human CTRP6 (Aviscera Bioscience), C1q/TNF-related protein family; amino acid sequence SEQ ID NO: 3 (protein, listed as Homo sapiens)
chain: MQWLRVRESPGEATGHRVTMGTAALGPVWAALLLFLLMCEIPMVELTFDRAVASGCQRCCDSEDPLDPAHVSSASSSGRPHALPEIRPYINITILKGDKGDPGPMGLPGYMGREGPQGEPGPQGSKGDKGEMGSPGAPCQKRFFAFSVGRKTALHSGEDFQTLLFERVFVNLDGCFDMATGQFAAPLRGIYFFSLNVHSWNYKETYVHIMHNQKEAVILYAQPSERSIMQSQSVMLDLAYGDRVWVRLFKRQRENAIYSNDFDTYITFSGHLIKAEDD
[4]
  chondrogenesis (intensity of Alcian blue stained cells): chondrogenesis was promoted in a recombinant human CTRP6 concentration-dependent manner
[1]; [9]
  number of cells (cell proliferation): facilitated cell proliferation
[1]; 2 days, second statement of b158 (FIG. 5D, 50 ng/ml recombinant human CTRP3)
  number of cells (cell proliferation): also facilitated
[5]; ATDC5 with AdipoR1 siRNA, FIG. 4A
  number of cells (cell proliferation), AdipoR1 siRNA introduced: facilitation of cell proliferation was not confirmed
[5]; ATDC5 with AdipoR4 siRNA, FIG. 4B
  number of cells (cell proliferation), AdipoR4 siRNA introduced: facilitation of cell proliferation was not confirmed
[6]
  phosphorylation of MAPKs (ERK1/2): facilitated phosphorylation of ERK1/2
[2]; 50 ng/ml, 2 days
  number of cells (cell proliferation): facilitated cell proliferation
[7]
  number of cells (cell proliferation): facilitated cell proliferation
[8]; ATDC5 with AdipoR1 siRNA, FIG. 4C
  phosphorylation of ERK1/2, AdipoR1 siRNA introduced: phosphorylation of ERK1/2 was not facilitated
[8]; ATDC5 with AdipoR4 siRNA, FIG. 4D
  phosphorylation of ERK1/2, AdipoR4 siRNA introduced: phosphorylation of ERK1/2 was not facilitated
